Article PMC12804944 (Nature Communications, 2025)

Biological target: human FcγRIIb on Huvec-2b cells (Homo sapiens (Human)., UniProt P31994)
Assay: flow cytometry on cells

human FcγRIIb on Huvec-2b cells, sequence (P31994 43-310): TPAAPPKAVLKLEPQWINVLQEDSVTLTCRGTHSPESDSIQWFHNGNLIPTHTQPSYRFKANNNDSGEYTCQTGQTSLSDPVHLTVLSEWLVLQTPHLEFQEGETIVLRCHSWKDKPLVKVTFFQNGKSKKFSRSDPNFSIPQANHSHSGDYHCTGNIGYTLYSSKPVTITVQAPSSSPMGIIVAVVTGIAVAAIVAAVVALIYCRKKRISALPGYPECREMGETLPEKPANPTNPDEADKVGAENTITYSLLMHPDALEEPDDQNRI

Row | binding result | Binder
1 | binds | SK3-Fc (Fc fusion, human) VH: QVLVETGGGVVQPGRSLRLSCAASGFTFSSYGMHWVRQAPGKGLEWVAVISYDGDDKDYADSVKGRFTISRDNADSSVFLQMNSLRAEDTALYYCAREGQWVGGALDIWGQGTMVTVSS VL: DIVMTQSPSTLSASLGDTVTITCRASQSINGWLAWYQQKPGKAPNLLIYQAPNLESGVPSRFSGSGSGTEFTLTINGLQPDDFATYYCQKYDNAPHTFGQGTKVEIK
2 | binds | SK4-Fc (Fc fusion, human) VH: QVQLVETGGGVVQVGRSLRLSCAASGFTFSHYGMHWVRQAPGKGLEWVSGISWNSDRRGYADSVKGRFTISRDNTKNSLYLQMNSLRAEDTAVYYCVREFYDAFDIWGQGTMVTVSS VL: DIQMTQSPSSLPAYVGDRVTISCRASQSIRTYLNWYRQKVGKAPELLVYDASSLHKGVPSRFSASGSGTDFSLTISSLQPEDFATYYCQQSFSSPRTFGQGTKVEIK
